Data: article PMC12084805
Like-named read-outs stand apart in the source and are kept apart here.

T1: POT-2 (Caenorhabditis elegans, UniProt O45595 1-251)
T1 sequence: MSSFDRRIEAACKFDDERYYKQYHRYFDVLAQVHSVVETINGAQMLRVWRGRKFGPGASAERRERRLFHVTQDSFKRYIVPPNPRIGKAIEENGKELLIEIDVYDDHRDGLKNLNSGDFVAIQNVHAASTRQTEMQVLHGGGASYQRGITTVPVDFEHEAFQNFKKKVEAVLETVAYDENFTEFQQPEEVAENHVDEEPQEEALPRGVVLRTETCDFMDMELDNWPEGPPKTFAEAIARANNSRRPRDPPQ

T2: POT-3 (Caenorhabditis elegans, UniProt G5EFG7 1-215)
T2 sequence: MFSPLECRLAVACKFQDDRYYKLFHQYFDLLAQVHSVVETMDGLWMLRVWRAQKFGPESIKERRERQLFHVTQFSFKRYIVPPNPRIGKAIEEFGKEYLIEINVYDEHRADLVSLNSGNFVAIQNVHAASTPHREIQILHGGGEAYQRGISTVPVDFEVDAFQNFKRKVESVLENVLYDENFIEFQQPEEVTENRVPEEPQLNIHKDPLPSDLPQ


Assays:
Experiment in all cases: EMSA
POT-2 [1] = molecular target: T1, POT-2
POT-3 [2] = molecular target: T2, POT-3
POT-2 [3] = molecular target: T1, POT-2; remark: listed apart in the source
POT-3 [4] = molecular target: T2, POT-3; remark: listed apart in the source

Binder	binding result (POT-2 [1])	binding result (POT-3 [2])	binding result (POT-2 [3])	binding result (POT-3 [4])
TTAGGTTTAGGT (ssDNA) [ss (TTAGGT)2]	no binding	no binding		
TTAGACTTAGAC (ssDNA) [ss (TTAGAC)2]	no binding	no binding		
TTAGGCTTAGGC (ssDNA) [ss (TTAGGC)2]			binds	binds
